The numbers were not newly measured in publication PMC10249258, which cites them from elsewhere.

The data set has as its target CD155 (Homo sapiens) (UniProt P15151).
UniProt P15151, sequence (P15151 21-343): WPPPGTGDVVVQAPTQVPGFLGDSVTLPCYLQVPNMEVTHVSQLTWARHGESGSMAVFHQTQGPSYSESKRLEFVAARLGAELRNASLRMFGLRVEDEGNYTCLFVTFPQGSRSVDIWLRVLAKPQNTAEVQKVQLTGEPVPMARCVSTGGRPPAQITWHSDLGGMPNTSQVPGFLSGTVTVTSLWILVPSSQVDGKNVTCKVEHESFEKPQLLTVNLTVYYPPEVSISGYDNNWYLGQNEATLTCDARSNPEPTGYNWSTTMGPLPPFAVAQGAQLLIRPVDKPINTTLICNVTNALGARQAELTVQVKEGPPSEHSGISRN

The Kd is a measure of binding affinity in units of concentration. As for TIGIT (from UniProt Q495A1), the dissociation constant Kd was 2 nM.
